The values that follow come from publication PMC9531584 (Nature structural & molecular biology, 2022).

Sequences and labels used below:
T1: Torpedo californica muscle-type nicotinic acetylcholine receptor δ subunit (Torpedo californica (Tetronarce …, UniProt P02718 22-522))
T1 sequence (looked up): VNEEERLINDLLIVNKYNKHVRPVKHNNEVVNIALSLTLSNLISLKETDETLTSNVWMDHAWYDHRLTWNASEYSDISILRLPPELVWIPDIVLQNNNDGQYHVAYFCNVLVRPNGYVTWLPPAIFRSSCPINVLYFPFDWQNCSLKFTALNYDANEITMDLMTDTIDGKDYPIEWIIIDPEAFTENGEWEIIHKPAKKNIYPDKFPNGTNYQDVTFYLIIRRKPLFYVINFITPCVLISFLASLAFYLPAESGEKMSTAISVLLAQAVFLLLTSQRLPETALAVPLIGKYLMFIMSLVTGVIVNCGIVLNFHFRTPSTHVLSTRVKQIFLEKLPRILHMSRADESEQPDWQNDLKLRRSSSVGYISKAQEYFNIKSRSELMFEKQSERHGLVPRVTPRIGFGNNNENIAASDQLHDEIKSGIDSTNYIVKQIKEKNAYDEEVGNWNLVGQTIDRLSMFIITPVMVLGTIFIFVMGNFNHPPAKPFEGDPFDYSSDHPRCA

B1: Torpedo californica muscle-type nicotinic acetylcholine receptor α subunit (natural protein, UniProt P02710 25-461, looked up)
chain: SEHETRLVANLLENYNKVIRPVEHHTHFVDITVGLQLIQLISVDEVNQIVETNVRLRQQWIDVRLRWNPADYGGIKKIRLPSDDVWLPDLVLYNNADGDFAIVHMTKLLLDYTGKIMWTPPAIFKSYCEIIVTHFPFDQQNCTMKLGIWTYDGTKVSISPESDRPDLSTFMESGEWVMKDYRGWKHWVYYTCCPDTPYLDITYHFIMQRIPLYFVVNVIIPCLLFSFLTGLVFYLPTDSGEKMTLSISVLLSLTVFLLVIVELIPSTSSAVPLIGKYMLFTMIFVISSIIITVVVINTHHRSPSTHTMPQWVRKIFIDTIPNVMFFSTMKRASKEKQENKIFADDIDISDISGKQVTGEVIFQTPLIKNPDVKSAIEGVKYIAEHMKSDEESSNAAEEWKYVAMVIDHILLCVFMLICIIGTVSVFAGRLIELSQEG
B2: Torpedo californica muscle-type nicotinic acetylcholine receptor β subunit (natural protein, UniProt P02712 25-493, looked up)
chain: SVMEDTLLSVLFETYNPKVRPAQTVGDKVTVRVGLTLTNLLILNEKIEEMTTNVFLNLAWTDYRLQWDPAAYEGIKDLRIPSSDVWQPDIVLMNNNDGSFEITLHVNVLVQHTGAVSWQPSAIYRSSCTIKVMYFPFDWQNCTMVFKSYTYDTSEVTLQHALDAKGEREVKEIVINKDAFTENGQWSIEHKPSRKNWRSDDPSYEDVTFYLIIQRKPLFYIVYTIIPCILISILAILVFYLPPDAGEKMSLSISALLAVTVFLLLLADKVPETSLSVPIIIRYLMFIMILVAFSVILSVVVLNLHHRSPNTHTMPNWIRQIFIETLPPFLWIQRPVTTPSPDSKPTIISRANDEYFIRKPAGDFVCPVDNARVAVQPERLFSEMKWHLNGLTQPVTLPQDLKEAVEAIKYIAEQLESASEFDDLKKDWQYVAMVADRLFLYVFFVICSIGTFSIFLDASHNVPPDNPFA

Assay [1] concerns the target B2. Description: cryo-EM structure.
Assay [2] deals with T1, Torpedo californica muscle-type …. Put plainly: cryo-EM structure.

With B1, the binding result in assay [1] is listed as “binds”.
As to B2, in assay [2], the binding result is given as “binds”.
